From patent US6274703 come the findings set out here.

In assay [1] the target is TIMP-2 (Homo sapiens (Human)) (UniProt P16035). In words: competition with 125I-labelled WT GelA-CTD on TIMP-2 coated wells; mutant Ki over WT Kd.
For assay [2] the target is unchanged. In words: competition with 125I-labelled WT GelA-CTD on TIMP-2 coated wells; against WT.
Assay [3] shares this target. Nature of the assay: self competition with 125I-labelled WT GelA-CTD on TIMP-2 coated wells.
The target is the same in assay [4]. In words: competition with 125I-labelled WT GelA-CTD on TIMP-2 coated wells; against WT. The source holds these as a separate data set.

Read-outs that look alike come from different tables or passages of the source.

Regarding “FLAG GelA-CTD double mutant #46 Glu^641→Ala + Gly^651→Arg (from UniProt P08253)”, in assay [1], the Ki/Kd is greater than 500. Moreover, the fold loss in TIMP-2 binding in assay [2] is greater than 100 fold.
Turning to “FLAG GelA-CTD fusion protein, wild type (from UniProt P08253)”, the Ki/Kd in assay [3] worked out at 1.
The substance “FLAG GelA-CTD mutant #28 Asp^569→Ala (from UniProt P08253)” displayed a Ki/Kd in assay [1] of 8.
“FLAG GelA-CTD mutant #31 Lys^579→Ala (from UniProt P08253)” returned a Ki/Kd in assay [1] of 6.
“FLAG GelA-CTD mutant #39 Lys^604→Ala (from UniProt P08253)”: the Ki/Kd in assay [1] was determined as 25.
Substance “FLAG GelA-CTD mutant #41 Asp^615→Ala (from UniProt P08253)” had a Ki/Kd in assay [1] of 300. Moreover, in assay [2], the fold loss in TIMP-2 binding was greater than 100 fold.
For “FLAG GelA-CTD mutant #229 Lys^576→Ala (from UniProt P08253)”, the Ki/Kd in assay [1] was greater than 500. Further, in assay [4], the fold loss in TIMP-2 binding was greater than 100 fold.
In turn, “FLAG GelA-CTD mutant #234 Arg^590→Ala (from UniProt P08253)” came in with a Ki/Kd in assay [1] greater than 500. Moreover, the fold loss in TIMP-2 binding in assay [2] and in assay [4] was greater than 100 fold each time.
For the substance “FLAG GelA-CTD mutant #247 Lys^646→Ala (from UniProt P08253)”, the Ki/Kd in assay [1] is greater than 500. Further, in assay [4], the fold loss in TIMP-2 binding is greater than 100 fold.
Take “FLAG GelA-CTD mutant #250 Trp^574→Ala (from UniProt P08253)”: the Ki/Kd in assay [1] was greater than 500.
“FLAG GelA-CTD mutant #252 Tyr^636→Ala (from UniProt P08253)”: the Ki/Kd in assay [1] amounted to 10.
On the same count and under the same terms, for “FLAG GelA-CTD mutant #255 Phe^650→Ala (from UniProt P08253)” the value was 8; for “FLAG GelA-CTD mutant #257 Gly^651→Ala (from UniProt P08253)”, 3; for “FLAG GelA-CTD mutant #258 Asp^656→Ala (from UniProt P08253)”, 10.
In turn, “FLAG GelA-CTD mutant #259 Asn^611→Ala (from UniProt P08253)” had a Ki/Kd in assay [1] of 3.
